Data as given in publication PMC13129248.

Target: DENV C (dengue virus capsid protein) (Dengue virus 2, strain New Guinea, UniProt O92835 1-100)
Assay: Trp fluorescence quenching and lifetime

AAAGACCAACACCAAGAGGCACAGTAATGGACATT (ssDNA) [C]: binds.
